This passage reports EC50 (nM), ELK luciferase assay and Efficacy, ELK luciferase assay results from patent US20120052069A1.

This experiment has as its target β-Klotho overexpressed in recombinant human 293T kidney cells. Kind of experiment: cell-based or functional assay.
Consider MKEDD-hFGF21-(L15)-hFc (Fc fusion), for which the EC50 (nM), ELK luciferase assay is 834 nM and the Efficacy, ELK luciferase assay was 83.1%.
Taken in the same sequence, the figures for “hFc-(L15)-hFGF21(1-178, L98R, P171G) (Fc fusion)” were 167 nM and 63.9%.
For the substance “hFc-(L15)-hFGF21(L98R, P171G, 1-179) (Fc fusion)”, the EC50 (nM), ELK luciferase assay was found to be 7.8 nM and the Efficacy, ELK luciferase assay came out at 77.4%.
“hFc-(L15)-hFGF21(L98R, P171G, A180P) (Fc fusion)”: the EC50 (nM), ELK luciferase assay is 617 nM and the Efficacy, ELK luciferase assay is 77.1%.
For “hFc-(L15)-hFGF21(L98R, P171G, GGGGG182-6) (Fc fusion)” the same measures were 4310 nM and 99.7%.
Taken in the same sequence, the figures for “hFc-(L15)-hFGF21(L98R, P171G, S181A) (Fc fusion)” were 2.66 nM and 73.5%.
“hFc-(L15)-hFGF21(L98R, P171G, S181G) (Fc fusion)”: the EC50 (nM), ELK luciferase assay is 3.43 nM and the Efficacy, ELK luciferase assay was found to be 77.3%.
“hFc-(L15)-hFGF21(L98R, P171G, S181K) (Fc fusion)”: the EC50 (nM), ELK luciferase assay worked out at 130 nM and the Efficacy, ELK luciferase assay stood at 87.9%.
For “hFc-(L15)-hFGF21(L98R, P171G, S181L) (Fc fusion)” the same measures were 3.46 nM and 72.6%.
“hFc-(L15)-hFGF21(L98R, P171G, S181P) (Fc fusion)”: the EC50 (nM), ELK luciferase assay was 33.8 nM and the Efficacy, ELK luciferase assay is 79.5%.
For “hFc-(L15)-hFGF21(L98R, P171G, S181P, P182) (Fc fusion)” the same measures were 272 nM and 69.9%.
Take “hFc-(L15)-hFGF21(L98R, P171G, S181T) (Fc fusion)”: the EC50 (nM), ELK luciferase assay stood at 3.07 nM and the Efficacy, ELK luciferase assay was found to be 77.6%.
For “hFc-(L15)-hFGF21(L98R, P171G, Y179G) (Fc fusion)” the same measures were 61 nM and 82.6%.
Taken in the same sequence, the figures for “hFc-(L15)-hFGF21(L98R, P171G, Y179P) (Fc fusion)” were 428 nM and 44.4%.
